# Numbering of substitutions follows the chain as printed.
# B1: NRC3_wobSeed130_DR5_T15A_o1 (dsDNA)
# DNA 1: GCCTCGAAAGGTCGAGCTCAGGTGAGTATACCAAACGCGATTGACAGCGTAGAATGAAGG
# DNA 2: CCTTCATTCTACGCTGTCAATCGCGTTTGGTATACTCACCTGAGCTCGACCTTTCGAGGC
# B2: NRC3_wobSeed85_DR3_G17T_o1 (dsDNA)
# DNA 1: GCCGTCCAAGGTCAGATAGGTCAGTGAATGCCGAGTGCGATTGACAGCGTAGAATGAAGG
# DNA 2: CCTTCATTCTACGCTGTCAATCGCACTCGGCATTCACTGACCTATCTGACCTTGGACGGC
# B3: NRC3_wobSeed43_DR1_C8A_o1 (dsDNA)
# DNA 1: GCCCAGAAAGGTGAAAGGTAACTCAGTCTGGTACGCGCGATTGACAGCGTAGAATGAAGG
# DNA 2: CCTTCATTCTACGCTGTCAATCGCGCGTACCAGACTGAGTTACCTTTCACCTTTCTGGGC
# B4: NRC3_wobSeed10_DR0_G6C_o1 (dsDNA)
# DNA 1: GCATCCAAAGGTCGAGGTGAGTATAGAGAAAGGGAAGCGATTGACAGCGTAGAATGAAGG
# DNA 2: CCTTCATTCTACGCTGTCAATCGCTTCCCTTTCTCTATACTCACCTCGACCTTTGGATGC
# B5: NRC3_wobSeed118_DR4_C7A_o1 (dsDNA)
# DNA 1: GCTTACAAAGGTGAGCTGAGGTCGTTGATCCAACTCGCGATTGACAGCGTAGAATGAAGG
# DNA 2: CCTTCATTCTACGCTGTCAATCGCGAGTTGGATCAACGACCTCAGCTCACCTTTGTAAGC
# B6: NRC3_wobSeed137_DR5_T13A_o1 (dsDNA)
# DNA 1: GCATATGTAGGTAACATCCGGGTCATTCAGGCTATGGCGATTGACAGCGTAGAATGAAGG
# DNA 2: CCTTCATTCTACGCTGTCAATCGCCATAGCCTGAATGACCCGGATGTTACCTACATATGC
# B7: NRC3_wobSeed2_DR0_T12C_o1 (dsDNA)
# DNA 1: GCCCTAGTTGGCCAAGGTCACACACGCTATAGGTACGCGATTGACAGCGTAGAATGAAGG
# DNA 2: CCTTCATTCTACGCTGTCAATCGCGTACCTATAGCGTGTGTGACCTTGGCCAACTAGGGC
# B8: NRC3_wobSeed73_DR3_A23G_o1 (dsDNA)
# DNA 1: GCCAAACTAGGTCACAGAGGTCGAAGTCCGTGCGTAGCGATTGACAGCGTAGAATGAAGG
# DNA 2: CCTTCATTCTACGCTGTCAATCGCTACGCACGGACTTCGACCTCTGTGACCTAGTTTGGC
# B9: NRC3_wobSeed142_DR5_G13T_o1 (dsDNA)
# DNA 1: GCATACCAAGGTTATCGTGAGGTCGTTGATACTAACGCGATTGACAGCGTAGAATGAAGG
# DNA 2: CCTTCATTCTACGCTGTCAATCGCGTTAGTATCAACGACCTCACGATAACCTTGGTATGC
# B10: NRC3_wobSeed89_DR3_C22T_o1 (dsDNA)
# DNA 1: GCCTATGTAGGTTAAGGGGGTTATTCAGTTTGAAAGGCGATTGACAGCGTAGAATGAAGG
# DNA 2: CCTTCATTCTACGCTGTCAATCGCCTTTCAAACTGAATAACCCCCTTAACCTACATAGGC
# B11: NRC3_wobSeed117_DR4_G20T_o1 (dsDNA)
# DNA 1: GCCGTCAAAGTTCAACTAATGTAACGTAAAGCACGCGCGATTGACAGCGTAGAATGAAGG
# DNA 2: CCTTCATTCTACGCTGTCAATCGCGCGTGCTTTACGTTACATTAGTTGAACTTTGACGGC
# B12: NRC3_wobSeed5_DR0_T19A_o1 (dsDNA)
# DNA 1: GCCCTTACGGGTCAAGGTAATAGCACGGGTGGTACGGCGATTGACAGCGTAGAATGAAGG
# DNA 2: CCTTCATTCTACGCTGTCAATCGCCGTACCACCCGTGCTATTACCTTGACCCGTAAGGGC
# B13: NRC3_wobSeed120_DR4_A6C_o1 (dsDNA)
# DNA 1: GCCCGCGTAGGTTACGAGGGGGCATTCAGTGCGAATGCGATTGACAGCGTAGAATGAAGG
# DNA 2: CCTTCATTCTACGCTGTCAATCGCATTCGCACTGAATGCCCCCTCGTAACCTACGCGGGC
# B14: NRC3_wobSeed58_DR2_A22T_o1 (dsDNA)
# DNA 1: GCATCGAAAGGTCGTGAGGTGTGTATACAGAAAGGCGCGATTGACAGCGTAGAATGAAGG
# DNA 2: CCTTCATTCTACGCTGTCAATCGCGCCTTTCTGTATACACACCTCACGACCTTTCGATGC
# B15: NRC3_wobSeed6_DR0_T22C_o1 (dsDNA)
# DNA 1: GCCCTAGCAGGCCAGGGTCACCCAAGCATTTCGCTTGCGATTGACAGCGTAGAATGAAGG
# DNA 2: CCTTCATTCTACGCTGTCAATCGCAAGCGAAATGCTTGGGTGACCCTGGCCTGCTAGGGC
# B16: NRC3_wobSeed136_DR5_T27A_o1 (dsDNA)
# DNA 1: GCTAGCCTAGGTCATTCAGGGGCCAGAATAGAAAGCGCGATTGACAGCGTAGAATGAAGG
# DNA 2: CCTTCATTCTACGCTGTCAATCGCGCTTTCTATTCTGGCCCCTGAATGACCTAGGCTAGC
# B17: NRC3_wobSeed138_DR5_A6C_o1 (dsDNA)
# DNA 1: GCGATCCAGGGTCAGCTAGAGGCCAGAGTATGGAAAGCGATTGACAGCGTAGAATGAAGG
# DNA 2: CCTTCATTCTACGCTGTCAATCGCTTTCCATACTCTGGCCTCTAGCTGACCCTGGATCGC
# B18: NRC3_wobSeed93_DR3_A8G_o1 (dsDNA)
# DNA 1: GCAGTCAGAGTTCATCTAGGTAACGTAAGATATGCTGCGATTGACAGCGTAGAATGAAGG
# DNA 2: CCTTCATTCTACGCTGTCAATCGCAGCATATCTTACGTTACCTAGATGAACTCTGACTGC
# B19: NRC3_wobSeed93_DR3_A18T_o1 (dsDNA)
# DNA 1: B18 DNA 1 with G8A, A18T
# DNA 2: B18 DNA 2 with T43A, C53T
# B20: NRC3_wobSeed66_DR2_A22C_o1 (dsDNA)
# DNA 1: GCAATACAGGGTCACTAGGCCCGAGTAGGTACGAATGCGATTGACAGCGTAGAATGAAGG
# DNA 2: CCTTCATTCTACGCTGTCAATCGCATTCGTACCTACTCGGGCCTAGTGACCCTGTATTGC
# B21: NRC3_wobSeed121_DR5_G21A_o1 (dsDNA)
# DNA 1: GCCAAACTAGGTCACCGGAAAGTCAAAGTCCGCATGGCGATTGACAGCGTAGAATGAAGG
# DNA 2: CCTTCATTCTACGCTGTCAATCGCCATGCGGACTTTGACTTTCCGGTGACCTAGTTTGGC
# B22: NRC3_wobSeed40_DR1_T15C_o1 (dsDNA)
# DNA 1: GCTAGCCTAGGTCACGGGCCAGTATACCACGCGAACGCGATTGACAGCGTAGAATGAAGG
# DNA 2: CCTTCATTCTACGCTGTCAATCGCGTTCGCGTGGTATACTGGCCCGTGACCTAGGCTAGC
# B23: NRC3_wobSeed40_DR1_A24T_o1 (dsDNA)
# DNA 1: B22 DNA 1 with C15T, A24T
# DNA 2: B22 DNA 2 with T37A, G46A
# B24: NRC3_wobSeed36_DR1_T25C_o1 (dsDNA)
# DNA 1: GCCCGACTGGGGCAAAGGTTACCACACTCAGTACGAGCGATTGACAGCGTAGAATGAAGG
# DNA 2: CCTTCATTCTACGCTGTCAATCGCTCGTACTGAGTGTGGTAACCTTTGCCCCAGTCGGGC
# Biological target: RARa:RXRa (Homo sapiens, UniProt P10276;P19793 full;full)
# Sequence (P10276 whole entry, chain 1 of 2): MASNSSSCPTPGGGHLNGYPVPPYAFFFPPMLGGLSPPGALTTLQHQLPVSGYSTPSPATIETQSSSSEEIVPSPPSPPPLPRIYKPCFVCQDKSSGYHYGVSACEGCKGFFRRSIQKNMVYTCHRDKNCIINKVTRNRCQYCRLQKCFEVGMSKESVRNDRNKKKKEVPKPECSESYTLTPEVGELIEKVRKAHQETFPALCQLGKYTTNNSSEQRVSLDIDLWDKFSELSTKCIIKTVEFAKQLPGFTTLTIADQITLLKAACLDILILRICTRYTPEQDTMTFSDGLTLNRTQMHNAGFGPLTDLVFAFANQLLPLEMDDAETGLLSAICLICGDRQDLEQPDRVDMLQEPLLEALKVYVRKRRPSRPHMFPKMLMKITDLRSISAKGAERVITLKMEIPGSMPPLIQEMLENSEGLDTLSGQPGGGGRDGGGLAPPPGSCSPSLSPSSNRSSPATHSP
# Sequence (P19793 whole entry, chain 2 of 2): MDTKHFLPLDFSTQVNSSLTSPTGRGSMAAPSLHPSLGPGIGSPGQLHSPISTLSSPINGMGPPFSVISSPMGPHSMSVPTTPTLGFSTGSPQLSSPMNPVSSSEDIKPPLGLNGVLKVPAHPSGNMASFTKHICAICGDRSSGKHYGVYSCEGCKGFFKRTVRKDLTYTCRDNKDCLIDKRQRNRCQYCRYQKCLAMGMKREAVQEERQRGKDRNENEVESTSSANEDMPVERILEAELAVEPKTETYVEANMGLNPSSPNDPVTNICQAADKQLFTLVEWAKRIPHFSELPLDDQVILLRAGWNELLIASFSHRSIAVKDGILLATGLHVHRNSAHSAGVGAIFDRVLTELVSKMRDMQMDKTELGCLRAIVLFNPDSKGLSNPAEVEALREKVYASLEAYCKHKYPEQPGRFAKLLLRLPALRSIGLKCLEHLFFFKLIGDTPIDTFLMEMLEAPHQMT
# Assay: no ligand; PBM; 270 nM : 90 nM RXRa; PBS pH 7.4, 2% milk, 0.02% Triton X-100, 1 mM DTT, BSA, 0.4 mg/ml salmon testes DNA
# Conditions: tags: His kept;His cleaved; copies: 1;1; label: surface-attached array probe
# Outline: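 The probes on custom Agilent 4×180K protein-binding microarrays were double-stranded, with 34-nt variable regions bearing direct-repeat seeds, single-nucleotide variants, half-site ablations and random human genomic background sequences. Incubation lasted 1 h with ligand-free nuclear receptor dimers in PBS pH 7.4, 2% milk, 0.02% Triton X-100, 1 mM DTT, 0.2 mg/mL BSA and 0.4 mg/ml salmon testes DNA. Antibodies against each partner (one per run) detected bound dimers, and fluorescence scans were regression-normalized. Binding z-scores take the random background probes as reference.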
row,Binder,binding signal
1,B1,3.92 PBM z-score against 500 random probes
2,B2,4.18 PBM z-score against 500 random probes
3,B3,3.8 PBM z-score against 500 random probes
4,B4,3.47 PBM z-score against 500 random probes
5,B5,3.12 PBM z-score against 500 random probes
6,B6,3.23 PBM z-score against 500 random probes
7,B7,3.86 PBM z-score against 500 random probes
8,B8,4.06 PBM z-score against 500 random probes
9,B9,3.65 PBM z-score against 500 random probes
10,B10,3.33 PBM z-score against 500 random probes
11,B11,4.13 PBM z-score against 500 random probes
12,B12,3.77 PBM z-score against 500 random probes
13,B13,3.19 PBM z-score against 500 random probes
14,B14,4.09 PBM z-score against 500 random probes
15,B15,3.89 PBM z-score against 500 random probes
16,B16,3.51 PBM z-score against 500 random probes
17,B17,4.15 PBM z-score against 500 random probes
18,B18,3.62 PBM z-score against 500 random probes
19,B19,3.45 PBM z-score against 500 random probes
20,B20,3.99 PBM z-score against 500 random probes
21,B21,3.41 PBM z-score against 500 random probes
22,B22,3.59 PBM z-score against 500 random probes
23,B23,3.16 PBM z-score against 500 random probes
24,B24,3.7 PBM z-score against 500 random probes
